Results as given in patent US5683985, “Oligonucleotide decoys and methods relating thereto” (The Salk Institute for Biological Studies).

Legend:
JUN = JUN (UniProt P05412); conditions: PS at 6 linkages within the Sp1 recognition octamer; K2PtCl4 crosslinking, SDS gel
CREB (CRE-BP) [1] = molecular target: T1, CREB (CRE-BP) (UniProt P15337 P15337:1-327); assay: EMSA; crosslinks with K2PtCl4 at ~40% of ligCRE(s)6 efficiency; conditions: chain copies: 2; label: 32P; closed circular dumbbell
Method: For crosslinking of oligonucleotide to protein, approximately 0.015 pmole of the appropriate [^32P]-labelled dumbbell oligonucleotide was first incubated with 200 ng CREB or JUN protein in 10 μl of buffer containing 50 mM KCl, 15 mM Tris (pH 7.5), 0.1 mM EDTA, […], 180 ng acetylated BSA and 250 ng (poly[dI-dC]·poly[dI-dC]) as described above. After 15 minutes at room temperature, 1–3 μl of a freshly prepared solution containing the required amount of K_2PtCl_4 or transPt^II in buffer containing 1 mM phosphate (pH 7) and 0.1 mM EDTA was added to the reaction mixture. Incubation was continued at room temperature in the dark for 1 hour. 0.5 μl of a 5% solution of SDS was then added and the crosslinked product separated from non-crosslinked oligonucleotide on an 8% polyacrylamide gel using buffer containing 90 mM Tris-borate (pH 8.2) and 0.1% SDS (SDS gels disrupt noncovalently associated DNA-protein complexes).

CREB (CRE-BP) [2] = molecular target: T1, CREB (CRE-BP); assay: EMSA; 50 mM KCl, 15 mM Tris pH 7.5, room temperature; conditions: chain copies: 2, label: 5'-32P
Method: (§1) Binding of the ligated CRE and CRE(s)_6 sequences to the CREB protein was carried out as previously described [Dwarki et al., EMBO J. 9:225–232 (1990); chu and Orgel, Nucleic Acids Res. 19:6958 (1991)]. Approximately 0.015 pmole of the [^32P]-CRE sequences was added to ~200 ng of pure CREB protein in 10 µl of buffer containing 50 mM KCl, 15 mM Tris, (pH 7.5), 0.1 mM EDTA, 0.5 mM DTT, 180 ng acetylated BSA and 250 ng (poly[dI-dC].poly[dI-dC]) and then incubated at room temperature for 15–20 minutes. Binding was detected by gel shift assay on 6% non-denaturing gels using 40 mM Tris-borate at pH 8.2 as the electrophoresis buffer. Binding of the ligated CRE sequences to an aliquot of nuclear extract from PC12 cells (4 μg total protein) was carried out in the same way. Binding of TRE sequences to the JUN protein was carried out similarly in 10 μl of buffer containing 50 mM Tris (pH 7.9), 100 mM KCl, 1 mM EDTA, 1 mM DTT, 12.5 mM MgCl_2, 20% glycerol and 250 ng (poly[dI-dC]·poly[dI-dC]). Binding was detected by non-denaturing gel electrophoresis on 6% acrylamide, using 20 mM Tris-borate (pH 8.2) as electrophoresis buffer.

CREB (CRE-BP) [3] = molecular target: T1, CREB (CRE-BP); assay: EMSA; PS does not diminish binding; K2PtCl4 crosslinking 40-50% of binding at 2.3 mM; conditions: chain copies: 2; label: 32P; closed circular dumbbell
Method: (§2) Binding of the ligated CRE and CRE(s)_6 sequences to the CREB protein was carried out as previously described [Dwarki et al., EMBO J. 9:225–232 (1990); chu and Orgel, Nucleic Acids Res. 19:6958 (1991)]. Approximately 0.015 pmole of the [^32P]-CRE sequences was added to ~200 ng of pure CREB protein in 10 µl of buffer containing 50 mM KCl, 15 mM Tris, (pH 7.5), 0.1 mM EDTA, 0.5 mM DTT, 180 ng acetylated BSA and 250 ng (poly[dI-dC].poly[dI-dC]) and then incubated at room temperature for 15–20 minutes. Binding was detected by gel shift assay on 6% non-denaturing gels using 40 mM Tris-borate at pH 8.2 as the electrophoresis buffer. Binding of the ligated CRE sequences to an aliquot of nuclear extract from PC12 cells (4 μg total protein) was carried out in the same way. Binding of TRE sequences to the JUN protein was carried out similarly in 10 μl of buffer containing 50 mM Tris (pH 7.9), 100 mM KCl, 1 mM EDTA, 1 mM DTT, 12.5 mM MgCl_2, 20% glycerol and 250 ng (poly[dI-dC]·poly[dI-dC]). Binding was detected by non-denaturing gel electrophoresis on 6% acrylamide, using 20 mM Tris-borate (pH 8.2) as electrophoresis buffer. […]

CREB (CRE-BP) [4] = molecular target: T1, CREB (CRE-BP); assay: EMSA; bound more efficiently than the other oligomers; 50 mM KCl, pH 7.5; conditions: chain copies: 2; label: 32P; closed circular dumbbell
Method: as §1

CREB (CRE-BP) [5] = molecular target: T1, CREB (CRE-BP); assay: EMSA; does not bind CREB; crosslinking <10% of CRE at 2 mM K2PtCl4, none at 0.3 mM; conditions: chain copies: 2; label: 32P; closed circular dumbbell
Method: as §2

T1 sequence (P15337 whole entry, one chain of several): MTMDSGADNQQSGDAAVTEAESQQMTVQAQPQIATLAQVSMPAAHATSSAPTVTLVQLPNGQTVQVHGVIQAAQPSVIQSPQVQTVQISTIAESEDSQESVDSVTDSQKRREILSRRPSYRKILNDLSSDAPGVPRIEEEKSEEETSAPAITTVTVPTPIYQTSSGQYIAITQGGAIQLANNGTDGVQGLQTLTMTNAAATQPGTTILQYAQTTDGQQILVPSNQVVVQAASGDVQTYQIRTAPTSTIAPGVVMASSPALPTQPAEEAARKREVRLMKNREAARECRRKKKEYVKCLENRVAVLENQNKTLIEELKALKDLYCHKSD
Sequence of JUN (P05412 whole entry): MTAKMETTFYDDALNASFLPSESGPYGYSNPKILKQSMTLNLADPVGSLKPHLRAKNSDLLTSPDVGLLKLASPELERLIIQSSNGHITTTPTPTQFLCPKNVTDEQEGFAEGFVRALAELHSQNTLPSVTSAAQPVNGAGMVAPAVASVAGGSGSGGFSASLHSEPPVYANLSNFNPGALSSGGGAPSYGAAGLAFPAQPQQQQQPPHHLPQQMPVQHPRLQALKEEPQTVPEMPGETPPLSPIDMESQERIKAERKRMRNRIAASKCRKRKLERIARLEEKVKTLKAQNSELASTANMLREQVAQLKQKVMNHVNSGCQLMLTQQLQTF

Molecule: CCTCTCGCTCGCCCCGCCCCGATCCTCTCGATCGGGGCGGGGCGAG [ligSp1(s)6 dumbbell]
- binding signal (% of ligTRE(s)6 crosslinking) (JUN): < 10

Molecule: ACTCTCTGTGTCTGACTCATGCTCTCTCAGCATGAGTCAGACAC (structured_DNA, PS at 6 linkages within the recognition sequence) [ligTRE(s)6 dumbbell]
- binding signal (CREB (CRE-BP) [1]): ~0.1 fold of ligCRE(s)6

Molecule: AAATTGACGTCATGGTAACTCTCTTACCATGACGTCAATTT (structured_DNA) [CRE 41-mer hairpin]
- binding result (CREB (CRE-BP) [2]; hairpin with CTCTC loop): binds

B1: CRE 18-mer duplex (dsDNA)
DNA 1: AAATTGACGTCATGGTAA
DNA 2: TTACCATGACGTCAATTT
- binding result (CREB (CRE-BP) [2]): binds

Molecule: GTAACTCTCTTACCATGACGTCAATTTCTCTCAAATTGACGTCATG (structured_DNA) [CRE 46-mer nicked dumbbell]
- binding result (CREB (CRE-BP) [2]; nicked dumbbell): binds

Molecule: GTAACTCTCTTACCATGACGTCAATTTCTCTCAAATTGACGTCATG (structured_DNA, PS at 6 linkages within the octamer (T(s)GAC(s)GTC(s)A on both strands)) [ligCRE(s)6 dumbbell]
- binding result (CREB (CRE-BP) [3]): binds

Molecule: GTAACTCTCTTACCATGACGTCAATTTCTCTCAAATTGACGTCATG (structured_DNA) [ligCRE dumbbell]
- binding result (CREB (CRE-BP) [4]): binds

Molecule: CCTCTCGCTCGCCCCGCCCCGATCCTCTCGATCGGGGCGGGGCGAG (structured_DNA, PS at 6 linkages within the Sp1 recognition octamer) [ligSp1(s)6 dumbbell]
- binding result (CREB (CRE-BP) [5]): no binding
